Measurements taken from paper PMC3275625.

Target: SITS-labeled human αB-crystallin wild type (human) (UniProt P02511)
Experiment: FRET or BRET; in vitro subunit exchange: equal amounts (0.4 mg/ml) of SITS-labeled αB-wt (donor) and LYI-labeled αA-wt or mutant (acceptor) mixed at 37°C in 20 mM MOPS, 100 mM NaCl, pH 7.9; excitation 336 nm, rate constant k from the increase of acceptor emission at 515 nm, fit Ft/F0 = A1+A2e^-kt

Chain of SITS-labeled human αB-crystallin wild type (human) (P02511 whole entry): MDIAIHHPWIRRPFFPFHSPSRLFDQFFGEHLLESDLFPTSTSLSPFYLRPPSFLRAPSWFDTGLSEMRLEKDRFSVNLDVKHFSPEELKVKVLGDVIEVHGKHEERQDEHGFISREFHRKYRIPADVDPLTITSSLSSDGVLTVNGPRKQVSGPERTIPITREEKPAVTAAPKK
Chain of LYI-labeled human αA-crystallin wild type (P02489 whole entry): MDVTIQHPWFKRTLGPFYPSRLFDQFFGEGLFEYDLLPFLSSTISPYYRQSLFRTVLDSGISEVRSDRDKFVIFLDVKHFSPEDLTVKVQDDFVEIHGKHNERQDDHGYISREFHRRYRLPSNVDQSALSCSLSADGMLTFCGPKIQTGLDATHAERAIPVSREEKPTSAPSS

k (rate constant of subunit exchange): 0.000657 S^-1
Substance: LYI-labeled human αA-crystallin wild type (from UniProt P02489 1-173) (natural protein)
